Molecular target: SARS-CoV-2 RBD WT for SPR binding assays (SARS-CoV-2) (UniProt P0DTC2)

With S309 IgG1 (LS) (antibody) the neutralisation of authentic SARS-CoV-2-Nluc on Vero E6 cells (IF/luc), IC50 was 78.9 and the neutralisation of authentic SARS-CoV-2-Nluc on Vero E6 cells (IF/luc), IC90 was 300.

Reference: publication PMC8043444
